Source: publication PMC3139092 (Journal of Biological Inorganic Chemistry, 2011)
Where a chain is given by its changes, count along the chain named.

B1: Wild type (Phe87): Cytochrome P450 BM3 (CYP102A1) from Bacillus megaterium, wild type, Phe at position 87 (protein, UniProt P14779 1-1049, looked up)
Bifunctional cytochrome …: MTIKEMPQPKTFGELKNLPLLNTDKPVQALMKIADELGEIFKFEAPGRVTRYLSSQRLIKEACDESRFDKNLSQALKFVRDFAGDGLFTSWTHEKNWKKAHNILLPSFSQQAMKGYHAMMVDIAVQLVQKWERLNADEHIEVPEDMTRLTLDTIGLCGFNYRFNSFYRDQPHPFITSMVRALDEAMNKLQRANPDDPAYDENKRQFQEDIKVMNDLVDKIIADRKASGEQSDDLLTHMLNGKDPETGEPLDDENIRYQIITFLIAGHETTSGLLSFALYFLVKNPHVLQKAAEEAARVLVDPVPSYKQVKQLKYVGMVLNEALRLWPTAPAFSLYAKEDTVLGGEYPLEKGDELMVLIPQLHRDKTIWGDDVEEFRPERFENPSAIPQHAFKPFGNGQRACIGQQFALHEATLVLGMMLKHFDFEDHTNYELDIKETLTLKPEGFVVKAKSKKIPLGGIPSPSTEQSAKKVRKKAENAHNTPLLVLYGSNMGTAEGTARDLADIAMSKGFAPQVATLDSHAGNLPREGAVLIVTASYNGHPPDNAKQFVDWLDQASADEVKGVRYSVFGCGDKNWATTYQKVPAFIDETLAAKGAENIADRGEADASDDFEGTYEEWREHMWSDVAAYFNLDIENSEDNKSTLSLQFVDSAADMPLAKMHGAFSTNVVASKELQQPGSARSTRHLEIELPKEASYQEGDHLGVIPRNYEGIVNRVTARFGLDASQQIRLEAEEEKLAHLPLAKTVSVEELLQYVELQDPVTRTQLRAMAAKTVCPPHKVELEALLEKQAYKEQVLAKRLTMLELLEKYPACEMKFSEFIALLPSIRPRYYSISSSPRVDEKQASITVSVVSGEAWSGYGEYKGIASNYLAELQEGDTITCFISTPQSEFTLPKDPETPLIMVGPGTGVAPFRGFVQARKQLKEQGQSLGEAHLYFGCRSPHEDYLYQEELENAQSEGIITLHTAFSRMPNQPKTYVQHVMEQDGKKLIELLDQGAHFYICGDGSQMAPAVEATLMKSYADVHQVSEADARLWLQQLEEKGRYAKDVWAG

Tests used:
mutant Val87 (M11) = molecular target: T1, mutant Val87 (M11) (Priestia megaterium, UniProt P14779, E144G/E268V/E65G/F82I/F88V/G416S/H286Y/L189Q/R48L/Y199C); assay type: biochemical, Bacillus megaterium; conditions: 1 μM ketoconazole
T1 sequence (P14779 1-1049 R48L/E65G/F82I/F88V/E144G/L189Q/Y199C/E268V/H286Y/G416S): B1 Bifunctional cytochrome … with R48L, E65G, F82I, F88V, E144G, L189Q, Y199C, E268V, H286Y, G416S

[1] = Lauric acid induced NADPH consumption; assay type: biochemical; conditions: 0.1 mM lauric acid
[2] = Alkoxyresorufin O-dealkylation by CYP102A1 M11 mutants and wild-type CYP102A1; assay type: biochemical; conditions: 20 µM alkoxyresorufin, 20 nM P450 BM3, 25 °C
[3] = Alkoxyresorufin-induced NADPH consumption; assay type: biochemical; conditions: 20 nM enzyme, 200 µM NADPH, 25 °C
[4] = benzyloxyresorufin as the substrate, data not shown

Row | Molecule | Inhibition of lauric acid induced NADPH consumption (mutant Val87 (M11); 0.1 mM lauric acid) | Inhibition of substrate-induced NADPH consumption (mutant Val87 (M11); [4]) | Inhibition of the O-dealkylation reaction (mutant Val87 (M11); [4]) | Effect of lauric acid on NADPH consumption [1] | Specific activity of alkoxyresorufin O-dealkylation, side chain n-Heptyl ([2]; substrate n-heptoxyresorufin) | Specific activity of alkoxyresorufin O-dealkylation, side chain n-Octyl ([2]; substrate n-octoxyresorufin) | Specific activity of NADPH consumption, DMSO ([3]; no substrate, solvent DMSO (2%) only) | Specific activity of alkoxyresorufin-induced NADPH consumption, side chain Ethyl ([3]; substrate ethoxyresorufin 20 µM)
1 | CC(=O)N1CCN(c2ccc(OCC3COC(Cn4ccnc4)(c4ccc(Cl)cc4Cl)O3)cc2)CC1 (centres unmarked) [ketoconazole] | completely blocked | almost completely block | almost completely block | – | – | – | – | –
2 | B1 | – | – | – | strongly stimulated | 0.17 nmol resorufin/min/nmol P450 | 0.18 nmol resorufin/min/nmol P450 | 45 nmol NADPH/min/nmol P450 | 3,970 nmol NADPH/min/nmol P450
